Measurements reported in patent US20230035659A1, “Compositions and Methods for TTR Gene Editing and Treating ATTR Amyloidosis Comprising a Corticosteroid or Use Thereof” (Intellia Therapeutics, Inc., priority 2019, published 2023).
Strand notation (5' to 3'): a small letter for the sugar, then the base; units joined by * are phosphorothioate-linked, units joined directly phosphodiester-linked; [ ] holds rarer units or linkages, { } end groups; capitals alone tell only the bases. m = 2'-O-methyl; r = 2'-OH (RNA)

B1: G000510: TTR Cyno specific sgRNA modified sequence, SEQ ID NO: 122; guide sequence of CR005370 (nucleic acid)
guide: mA*mC*mU*rUrGrUrCrUrUrCrUrCrUrArUrArCrCrCrArGrUrUrUrUrArGrAmGmCmUmAmGmAmAmAmUmAmGmCrArArGrUrUrArArArArUrArArGrGrCrUrArGrUrCrCrGrUrUrArUrCrAmAmCmUmUmGmAmAmAmAmAmGmUmGmGmCmAmCmCmGmAmGmUmCmGmGmUmGmCmU*mU*mU*mU
B2: G000505: TTR Cyno specific sgRNA modified sequence, SEQ ID NO: 117; guide sequence of CR005365 (nucleic acid)
guide: mC*mA*mU*rUrGrArCrArGrCrArGrGrArCrUrGrCrCrUrGrUrUrUrUrArGrAmGmCmUmAmGmAmAmAmUmAmGmCrArArGrUrUrArArArArUrArArGrGrCrUrArGrUrCrCrGrUrUrArUrCrAmAmCmUmUmGmAmAmAmAmAmGmUmGmGmCmAmCmCmGmAmGmUmCmGmGmUmGmCmU*mU*mU*mU
B3: G000509: TTR Cyno specific sgRNA modified sequence, SEQ ID NO: 121; guide sequence of CR005369 (nucleic acid)
guide: mA*mA*mA*rGrUrUrCrUrArGrArUrGrCrCrGrUrCrCrGrGrUrUrUrUrArGrAmGmCmUmAmGmAmAmAmUmAmGmCrArArGrUrUrArArArArUrArArGrGrCrUrArGrUrCrCrGrUrUrArUrCrAmAmCmUmUmGmAmAmAmAmAmGmUmGmGmCmAmCmCmGmAmGmUmCmGmGmUmGmCmU*mU*mU*mU
B4: G000506: TTR Cyno specific sgRNA modified sequence, SEQ ID NO: 118; guide sequence of CR005366 (nucleic acid)
guide: mA*mU*mA*rCrCrArGrUrCrCrArGrCrGrArGrGrCrArGrGrUrUrUrUrArGrAmGmCmUmAmGmAmAmAmUmAmGmCrArArGrUrUrArArArArUrArArGrGrCrUrArGrUrCrCrGrUrUrArUrCrAmAmCmUmUmGmAmAmAmAmAmGmUmGmGmCmAmCmCmGmAmGmUmCmGmGmUmGmCmU*mU*mU*mU
B5: G000571: TTR sgRNA modified sequence, Human, SEQ ID NO: 112; guide sequence of CR005301 (nucleic acid)
guide: mG*mU*mC*rArCrArGrArArArCrArCrUrCrArCrCrGrUrGrUrUrUrUrArGrAmGmCmUmAmGmAmAmAmUmAmGmCrArArGrUrUrArArArArUrArArGrGrCrUrArGrUrCrCrGrUrUrArUrCrAmAmCmUmUmGmAmAmAmAmAmGmUmGmGmCmAmCmCmGmAmGmUmCmGmGmUmGmCmU*mU*mU*mU

How the values were obtained:
TTR [1] = experiment: TTR editing in primary cyno hepatocytes treated with LNP formulated Spy Cas9 mRNA (SEQ ID NO: 2) and sgRNAs, 12.5 ng mRNA; type: cell-based, cynomolgus monkey; settings: LNP formulated Spy Cas9 mRNA (SEQ ID NO: 2) and cyno matched sgRNA, lysed 72 hours post treatment
Protocol: (§1) Primary liver hepatocytes. Primary human liver hepatocytes (PHH) and primary cynomolgus liver hepatocytes (PCH) (Gibco) were cultured per the manufacturer's protocol (Invitrogen, protocol 11.28.2012). In brief, the cells were thawed and resuspended in hepatocyte thawing medium with supplements (Gibco, Cat. CM7000) followed by centrifugation at 100 g for 10 minutes for human and 80 g for 4 minutes for cyno. The supernatant was discarded and the pelleted cells resuspended in hepatocyte plating medium plus supplement pack (Invitrogen, Cat. A1217601 and CM3000). Cells were counted and plated on Bio-coat collagen I coated 96-well plates (ThermoFisher, Cat. 877272) at a density of 33,000 cells/well for human or 60,000 cells/well for cyno (or 65,000 cells/well when assaying effects on TTR protein, described further below). Plated cells were allowed to settle and adhere for 6 or 24 hours in a tissue culture incubator at 37° C. and 5% CO2 atmosphere. After incubation cells were checked for monolayer formation and media was replaced with hepatocyte culture medium with serum-free supplement pack (Invitrogen, Cat. A1217601 and CM4000).
In general, the lipid nanoparticle components were dissolved in 100% ethanol with the lipid component of various molar ratios. The RNA cargos were dissolved in 25 mM citrate, 100 mM NaCl, pH 5.0, resulting in a concentration of RNA cargo of approximately 0.45 mg/mL. The LNPs were formulated with a lipid amine to RNA phosphate (N:P) molar ratio of about 4.5 or about 6, with the ratio of mRNA to gRNA at 1:1 by weight.
The LNPs were formed by microfluidic mixing of the lipid and RNA solutions using a Precision Nanosystems NanoAssemblr™ Benchtop Instrument, according to the manufacturer's protocol. A 2:1 ratio of aqueous to organic solvent was maintained during mixing using differential flow rates. […]
Additional PCR was performed per the manufacturer's protocols (Illumina) to add chemistry for sequencing. […] The reads were aligned to a reference genome (e.g., the human reference genome (hg38), the cynomologus reference genome (mf5), the rat reference genome (rn6), or the mouse reference genome (mm10)) after eliminating those having low quality scores. The resulting files containing the reads were mapped to the reference genome (BAM files), where reads that overlapped the target region of interest were selected and the number of wild type reads versus the number of reads which contain an insertion, substitution, or deletion was calculated.
The editing percentage (e.g., the “editing efficiency” or “percent editing” or “indel frequency”) is defined as the total number of sequence reads with insertions/deletions (“indels”) or substitutions over the total number of sequence reads, including wild type. […]

TTR [2] = experiment: TTR editing dose response (EC50, maximum editing) in primary human hepatocytes treated with LNP formulated U-depleted Spy Cas9 mRNA and sgRNAs; type: cell-based
Protocol: as §1
(§2) For LNPs prepared using the cross-flow technique, the LNPs were formed by impinging jet mixing of the lipid in ethanol with two volumes of RNA solutions and one volume of water. The lipid in ethanol is mixed through a mixing cross with the two volumes of RNA solution. A fourth stream of water is mixed with the outlet stream of the cross through an inline tee. (See WO2016010840 FIG. 2.) The LNPs were held for 1 hour at room temperature, and further diluted with water (approximately 1:1 v/v). Diluted LNPs were concentrated using tangential flow filtration on a flat sheet cartridge (Sartorius, 100 kD MWCO) and then buffer exchanged by diafiltration into 50 mM Tris, 45 mM NaCl, 5% (w/v) sucrose, pH 7.5 (TSS). Alternatively, the final buffer exchange into TSS was completed with PD-10 desalting columns (GE). If required, formulations were concentrated by centrifugation with Amicon 100 kDa centrifugal filters (Millipore). The resulting mixture was then filtered using a 0.2 μm sterile filter. The final LNP was stored at 4° C. or −80° C. until further use.
(§3) Additional PCR was performed per the manufacturer's protocols (Illumina) to add chemistry for sequencing. The amplicons were sequenced on an Illumina MiSeq instrument. The reads were aligned to a reference genome (e.g., the human reference genome (hg38), the cynomologus reference genome (mf5), the rat reference genome (rn6), or the mouse reference genome (mm10)) after eliminating those having low quality scores. The resulting files containing the reads were mapped to the reference genome (BAM files), where reads that overlapped the target region of interest were selected and the number of wild type reads versus the number of reads which contain an insertion, substitution, or deletion was calculated.
(§4) The editing percentage (e.g., the “editing efficiency” or “percent editing” or “indel frequency”) is defined as the total number of sequence reads with insertions/deletions (“indels”) or substitutions over the total number of sequence reads, including wild type.
(§5) Lipid nanoparticle formulations of modified sgRNAs targeting human TTR and the cyno matched sgRNA sequences were tested on primary human hepatocytes and primary cyno hepatocytes in a dose response curve. Primary human and cyno hepatocytes were plated as described in Example 1. Both cell lines were incubated at 37° C., 5% CO2 for 24 hours prior to treatment with LNPs. The LNPs used in the experiments detailed in Tables 20-22 were prepared using the cross-flow procedure described above but purified using PD-10 columns (GE Healthcare Life Sciences) and concentrated using Amicon centrifugal filter units (Millipore Sigma), each containing the specified sgRNA and Cas9 mRNA (SEQ ID NO:1). […] LNPs were incubated in hepatocyte maintenance media containing 6% cyno serum at 37° C., 5% CO2 for 5 minutes. […]

TTR [3] = experiment: TTR editing dose response (EC50, maximum editing) in primary cyno hepatocytes treated with LNP formulated U-depleted Spy Cas9 mRNA and sgRNAs; type: cell-based, cynomolgus monkey
Protocol: as §1, §2, §3, §4, §5

[4] = tested on: potential off-target genomic sites; experiment: Off-target analysis by oligo insertion based assay in primary human hepatocytes (sgRNAs); type: cell-based; settings: 100 ng Cas9 mRNA, 25 nM sgRNA, 12.5 nM donor oligo, 48 h
Protocol: Off-target analysis of sgRNAs targeting TTR was performed in primary human hepatocytes (PHH) as described in Example 5, with the following modifications. PHH were plated at a density of 33,000 cells per well on collagen-coated 96-well plates as described in Example 1. Twenty-four hours post plating, cells were washed with media and transfected using Lipofectamine RNAiMAX (ThermoFisher, Cat. 13778150) as described in Example 1. Cells were transfected with a lipoplex containing 100 ng Cas9 mRNA, immediately followed by the addition of another lipoplex containing 25 nM of the sgRNA and 12.5 nM of the donor oligo (0.3 μL/well). Cells were lysed 48 hours post-transfection and gDNA was extracted and analyzed as further described in Example 5. The data is graphically represented in FIG. 20.
Fewer sites were detected in PHH for every guide tested as compared to the HekCas9 cell line, with no unique sites detected in PHH alone.

TTR mRNA = TTR mRNA knockdown (quantitative PCR) in primary human hepatocytes treated with LNPs; type: cell-based; settings: PHH; LNP dose 300 ng mRNA cargo; gRNA:mRNA 1:2; 96 h; biological triplicates; vs untreated control
Protocol: In one experiment, PHH were cultured and treated with LNPs comprising Cas9 mRNA (SEQ ID NO:1) and a gRNA of interest (See FIG. 29, Table 36), as described in Example 4. The LNPs were prepared using the cross-flow procedure described above and purified and concentrated using PD-10 columns and Amicon centrifugal filter units, respectively. The LNPs were formulated with an N:P ratio of 6.0 and contained Lipid A, Cholesterol, DSPC, and PEG2k-DMG in a 50:38:9:2 molar ratio, respectively. The LNPs comprised a gRNA:mRNA ratio of 1:2, and the cells were treated at a dose of 300 ng (with respect to the amount of mRNA cargo delivered).
(§6) Ninety-six (96) hours following LNP treatment (with biological triplicates for each condition), mRNA was purified from PHH cells using the Dynabeads mRNA DIRECT Kit (ThermoFisher Scientific) according to the manufacturer's protocol. Reverse Transcription (RT) was performed with Maxima reverse transcriptase (ThermoFisher Scientific) and a poly-dT primer. The resulting cDNA was purified with Ampure XP Beads (Agencourt). For Quantitative PCR, 2% of the purified cDNA was amplified with Taqman Fast Advanced Mastermix and 3 Taqman probe sets, TTR (Assay ID: Hs00174914_m1), GAPDH (Assay ID: Hs02786624_g1), and PPIB (Assay ID: Hs00168719_m1). The assays were run on the QuantStudio 7 Flex Real Time PCR System according to the manufacturer's instructions (Life Technologies). Relative expression of TTR mRNA was calculated by normalizing to the endogenous controls (GAPDH and PPIB) individually, and then averaged.
The groups in FIG. 29 and Table 36 are identified by the gRNA ID used in each LNP preparation.
In a separate experiment, TTR mRNA knockdown was evaluated following treatment with LNPs comprising G000480, G000486, and G000502. The LNPs were formulated and PHH were cultured and treated with the LNPs, each as described in the experiment above in this Example with the exception that the cells were treated at a dose of 100 ng (with respect to the amount of mRNA cargo delivered).
as §6, with “(single treatment” for “(with biological triplicates”, “the High Capacity cDNA Reverse Transcription Kit” for “Maxima reverse transcriptase”, “according to the manufacturer's instructions.” for “and a poly-dT primer. The resulting cDNA was purified with Ampure XP Beads (Agencourt).”, “the” for “the purified”
The groups in FIG. 30 and Table 37 are identified by the gRNA ID used in each LNP preparation.

[5] = LNP with U-depleted Spy Cas9 mRNA and cyno specific sgRNA, 8 point 3-fold dose response starting at 300 ng mRNA, 72 hours
[6] = LNP formulated U-depleted Spy Cas9 mRNA and cyno specific sgRNAs
[7] = LNP formulated U-depleted Spy Cas9 mRNA and human specific sgRNAs

Molecule | 12.5 ng mRNA, 3.9 nM sgRNA, Avg % Edit (TTR [1]) [%] | Max Editing (TTR [2]; [5]) [%] | Max Editing (TTR [3]; [6]) [%] | Max Editing (TTR [3]; [7]) [%] | Max Editing (TTR [2]; LNP formulated U-depleted Spy Cas9 mRNA and human specific sgRNAs, dose response) [%] | # Sites in PHH (off-target integration sites detected) [4] | Avg % Knockdown (TTR mRNA) (TTR mRNA) [%]
B1 | 61.87 | – | – | – | – | – | –
B2 | – | 13.48 | 99.97 | 13.48 | – | – | –
B3 | 74.47 | – | – | – | – | – | –
B4 | 60.13 | 89.49 | 99.18 | 89.49 | – | – | –
B5 | – | – | – | 97.03 | 71.28 | 1 | 96.17
